Data: patent publication US20090029924A1

Target: Recombinant human furin (human) (UniProt P09958)
Experiment: furin, Pyr-RTKR-AMC cleavage

Recombinant human furin (human), sequence (P09958 108-714 limits assumed): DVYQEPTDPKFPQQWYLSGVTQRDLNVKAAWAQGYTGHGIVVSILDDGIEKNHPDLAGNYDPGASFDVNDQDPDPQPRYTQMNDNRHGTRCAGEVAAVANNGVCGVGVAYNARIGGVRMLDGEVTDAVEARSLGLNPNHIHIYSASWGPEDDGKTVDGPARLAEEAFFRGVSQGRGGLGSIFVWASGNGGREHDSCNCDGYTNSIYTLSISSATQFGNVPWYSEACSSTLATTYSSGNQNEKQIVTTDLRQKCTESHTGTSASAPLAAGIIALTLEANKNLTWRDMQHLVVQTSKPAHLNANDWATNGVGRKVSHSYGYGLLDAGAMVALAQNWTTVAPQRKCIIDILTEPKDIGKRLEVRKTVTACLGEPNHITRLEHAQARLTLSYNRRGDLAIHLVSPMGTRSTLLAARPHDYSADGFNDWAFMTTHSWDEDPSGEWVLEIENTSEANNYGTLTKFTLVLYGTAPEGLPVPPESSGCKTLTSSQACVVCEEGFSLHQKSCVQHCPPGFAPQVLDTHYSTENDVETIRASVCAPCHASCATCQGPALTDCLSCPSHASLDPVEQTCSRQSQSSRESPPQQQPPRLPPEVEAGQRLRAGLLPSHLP

Substance	Ki [nM]
TPQR1RRRKKRG (peptide)	> 100
TPQR2RRRKKRG (peptide)	> 100
TPQR3RRRKKRG (peptide)	> 100
TPQR4RRRKKRG (peptide)	> 100
TPQR5RRRKKRG (peptide)	> 100
TPQR6RRRKKRG (peptide)	> 100
TPQR7RRRKKRG (peptide)	> 100
TPQR8RRRKKRG (peptide)	> 100
TPQReRRRKKRG (peptide)	> 100
TPQRkRRRKKRG (peptide)	> 100
TPQRrRRRKKRG (peptide)	> 100
